Tested on: MS2 coat protein
Assay: apparent KD of MS2 coat protein; designed switch direction (-1 OFF switch, 1 ON switch): 1; higher = weaker reporter binding
Procedure, shortened: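 Designed RNA switches sharing common flanks were transcribed on Illumina chips by stalled E. coli RNA polymerase. They were titrated with SNAP-549-labelled MS2 coat protein, from 0.7 or 1.5 nM doubling to 3 µM, in Tris-HCl pH 7.5 buffer with KCl, MgCl2, BSA, DTT, tRNA and Tween-20. Titrations ran without input, with 200 uM small-molecule ligand, or with an oligonucleotide input. The apparent KD of each design is the median over its clusters, after curve-fitting of normalised cluster fluorescence.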

[1] = input ligand: microRNA oligo, concentration not stated
[2] = Eterna round: R95, input ligand: FMN 200 uM
[3] = Eterna round: R95, input ligand: microRNA oligo, concentration not stated
[4] = Eterna round: R95, input ligand: none

Sequence | apparent KD of MS2 coat protein (input ligand: FMN 200 uM) | apparent KD of MS2 coat protein [1] | apparent KD of MS2 coat protein (input ligand: none) | apparent KD of MS2 coat protein [2] | apparent KD of MS2 coat protein [3] | apparent KD of MS2 coat protein [4]
GUUCGUUUGAUAGGAUAUCGCUUAACAUGAGGAUCACCCAUGUUUACCACGCUGGUUUUUCGUACCGAGAAGGAUUCUGAUGAU [JL JR sub007 mod 1] (Eterna round: R96, puzzle: Same State NG 2) | 37.9 nM | 43.6 nM | 47.1 nM | – | – | –
UUUAGUUGCGGGCAGGAUAUGUAUUAAAAUACAUGAGGAUCACCCAUGUGAGGCCGAAAAGGCCUACAGAAGGGCCAAUCGCGAC [Laonerce - 22] (puzzle: Same State 2) | – | – | – | 19.7 nM | 49.4 nM | 63 nM
AUAAAACAUGAGGAUCACCCAUGUAGACGGAGAGCCGUCACAUAGGAUAUAGCCAGCGGUGUUGGCUAGAAGGGUGGUAGAAAA [Lavezaer] (Eterna round: R96, puzzle: Same State NG 3) | 59.8 nM | 78.1 nM | 130 nM | – | – | –
GGAAUAUGAUGUUACAUGAGGAUCACCCAUGUAGUAAUAACUAAGGAUAUCUGUUAUGAUUAAUAAGAGAAGGUAGGAUCAUAA [AK SSNG3-V2-9] (Eterna round: R96, puzzle: Same State NG 3) | 23.6 nM | 19 nM | 25.8 nM | – | – | –
GAGCUCGUGUGAGGAUAUGCCGCCGUUUCGGCUGCAGAAGGUGCUACGUUACAUGAGGAUCACCCAUGUCUCUGUUGUUUCGUA [salish99_SSNG1_r04_960] (Eterna round: R96, puzzle: Same State NG 1) | 65.1 nM | 43.3 nM | 51.1 nM | – | – | –
AGCUAGUACCGAGGAUAUACUUACAUGAGGACUACCCAUGUAUACAUGGUUCAAUAGGACUACAUGUAGAAGGCGGUACUAGCA [jandersonlee JLSSNG2 1.24 1FMN F5CU+F7U.1] (Eterna round: R96, puzzle: Same State NG 2) | 595 nM | 26.1 nM | 75.6 nM | – | – | –
GAGAGAGGAAGCGAGGAUAUCGUGUUGAGUACAUGAGGAUCACCCAUGUUGUAGGUAGAGGUAGGCGAGAAGGCGCAGGAGAGGU [JR_SS2_Sub098] (puzzle: Same State 2) | – | – | – | 106 nM | 48.8 nM | 122 nM
GGUAGGUUACUACCAAACAUGAGGAUCACCCAUGUAAAUGGGAAGGAUAUGGUACCGUUUCGGUACCAGAAGGUCCAAAAUAUU [JL Fiskers NG3ss - 2 final mod] (Eterna round: R96, puzzle: Same State NG 3) | 418 nM | 356 nM | 1520 nM | – | – | –
GGUCCAGCCUGAGCUGGACUAUAGCAUGUACAUGAGGAUCACCCAUGUCAUGUACAAGUAUGUUGUUUGUCUUGAAA [Sensorship 6 - Jieux - Sensor for hsa-mir-208a] (puzzle: Sensor for hsa-mir-208a) | – | – | – | 21.4 nM | 15.3 nM | 20.2 nM
UAAAAGAAUUAAGGAUAUUGAAUACAUAUGUUUAACAUGAGGAUCACCCAUGUGGGUUGCGGUAUCGAGAAGGUAAAAUAAUAG [Mat - Same State NG 2 - JL mod - D6] (Eterna round: R96, puzzle: Same State NG 2) | 163 nM | 110 nM | 151 nM | – | – | –
CUCCCAGCGGGAGGAUAUGGUGCCUUGUUGGUGCUAGAAGGUCCAACAUGAGGAUCACCCAUGUGGGAGUGGUUGAGAGACCUC [SS NG10LRO12] (Eterna round: R96, puzzle: Same State NG 1) | 218 nM | 166 nM | 278 nM | – | – | –
UCUUGGUUUUUGCUCGUUUUUUGUGUUGAACAUGAGGAUCACCCAUGUAUUGUACAAUCCAGUUUGAUAAUGGUCCA [Mod of one of JR's submissions] (puzzle: Sensor for hsa-mir-208a) | – | – | – | 80.2 nM | 77.6 nM | 102 nM
UGUUGGAAGUGAGGAUAUGGGAAAGGAAGUGUACCAGAAGGCACAUCUAGCCGGAACAUGAGGAUCACCCAUGUACCACACUAC [PowerStrip SSNG 1.15] (Eterna round: R96, puzzle: Same State NG 1) | 128 nM | 24.6 nM | 30.7 nM | – | – | –
AGUCCAGCCUGAGCUGGACAAAAGCAUGUACAUGAGGAUCACCCAUGUUCAUGUACAAGCUUUUUGCAAGUCAAAAU [Mat - hsa-mir-208a - Mod of JL - 80] (puzzle: Sensor for hsa-mir-208a) | – | – | – | 723 nM | 13.8 nM | 641 nM
CCGUGGUAACAUGAGGAUCACCCAUGUACAAGCUUUUUGCUCGUUGGAUCCGGCGCGCCCAUUAUGGGCGCGCCGGA [Nishu_Seq2] (puzzle: Sensor for hsa-mir-208a version 2) | – | – | – | 26.2 nM | 16 nM | 25.6 nM
UUGAAGAACAUAGGAUAUUGAAUACAUAUGUUUAACAUGAGGAUCACCCAUGUGGGUUGCGGUAUCGAGAAGGAUGAAUAAAAG [Mat - Same State NG 2 - JL mod - D15] (Eterna round: R96, puzzle: Same State NG 2) | 328 nM | 259 nM | 256 nM | – | – | –

Sequence | apparent KD of MS2 coat protein (input ligand: FMN 200 uM) | apparent KD of MS2 coat protein [1] | apparent KD of MS2 coat protein (input ligand: none) | apparent KD of MS2 coat protein [2] | apparent KD of MS2 coat protein [3] | apparent KD of MS2 coat protein [4]
GGCGAACAGGCUAACAUGAGGAUCACCCAUGUGGACUCAUGUUAGGAUAUCGGGAAGGAGGAAACCGAGAAGGGACGGUGAGCU [AK SSNG3-V2-45] (Eterna round: R96, puzzle: Same State NG 3) | 191 nM | 18 nM | 34.1 nM | – | – | –
GGCACAAAAGCACAGGAUAUGCAAAAGAACACAUGAGGAUCACCCAUGUAGCCAAAUAACGGGCAGCAGAAGGGUGGGACUGCCA [Ceridi] (puzzle: Same State 2) | – | – | – | 78.2 nM | 693 nM | 485 nM
UUUCGGUGGCUGGAGGAUAUCCUGGUUGUUACAUGAGGAUCACCCAUGUGCCGCGCGGUGCGCUGGGAGAAGGCCGGCGGCCCUU (puzzle: Same State 2) | – | – | – | – | 25.2 nM | –
UAGAAACAUGAGGAUCACCCAUGUGUCAAAGACAUAGGAUAUCGUAACCGGCGCCGAAUACGAGAAGGGUGGUAAA [Arares] (puzzle: Same State 1) | – | – | – | 183 nM | 74.9 nM | 166 nM
UCAAGCGAGAGGCUCGUCUUAUGUUUGGUACAUGAGGAUCACCCAUGUUAGGGACGAUUUAGUUAGAUGGAAUUUUG [JR_SHM208A_Sub035] (puzzle: Sensor for hsa-mir-208a) | – | – | – | 48.5 nM | 269 nM | 65.7 nM
CGCCAACGCAUAGGAUAUGCUUGUGUGGAUCGGGCAGAAGGGUGGUUGGAAACAUGAGGAUCACCCAUGUAAAAGUAAGAAAAU [Rierinqu] (Eterna round: R96, puzzle: Same State NG 1) | 1450 nM | 926 nM | 668 nM | – | – | –
GCUACCAAUGAAGCCAACAUGAGGAUCACCCAUGUAUGUUGGUAGGAUAUCGUUUGCAAAGCAAACGAGAAGGGCUAAGGUAGC [Mat - Same State NG 3 - JL Mod - D75] (Eterna round: R96, puzzle: Same State NG 3) | 62.8 nM | 36.8 nM | 51 nM | – | – | –
GGAUGAUUAAUAGGAUAUUAUUUGUAAAAUGGUUAAGAAGGAUUAAUGAUUUAAACGACCAGAUACAUGAGGAUCACCCAUGUA [JR_SSNG1_Sub091] (Eterna round: R96, puzzle: Same State NG 1) | – | 19.5 nM | – | – | – | –
UUCACCUUUUUUUACAUGAGGAUCACCCAUGUUUACCCUACGUAGGAUAUCGAUGAAUGAUUGUACGAGAAGGACGUAGUAAGU [JR_SSND3_Sub057] (Eterna round: R96, puzzle: Same State NG 3) | 19.1 nM | 30.5 nM | 36.1 nM | – | – | –
AGGAUAACACAUGAGGAUCACCCAUGUAUUAUUAUUACAAGCUUUUUGCUCGUUUUUAAUAAUACAUGUGUUAUUUU [Default title] (puzzle: Sensor for hsa-mir-208a version 2) | – | – | – | 88.2 nM | 88.7 nM | 133 nM
AGUCCAGCCUGAGCUGGACAAAAGCAUGUACAUGAGGAUCACCCAUGUUCAUGUACAAGCUUUUUGCUCGUCUUACC [salish99_208a_r3_079] (puzzle: Sensor for hsa-mir-208a) | – | – | – | 669 nM | 15.8 nM | 722 nM
CGCAUCAUUGUUACAUGAGGAUCACCCAUGUUUUCGAGUGGAGAGGAUAUCGUAACAGUAUAAAUCGAGAAGGCUCUAUAGUAU [JR_SSNG3_Sub082] (Eterna round: R96, puzzle: Same State NG 3) | 34.1 nM | 77.1 nM | 81.6 nM | – | – | –
AAUUCACGAGCACAGGAUAUGCUUGCCAACACAUGAGGAUCACCCAUGUCGGGCUACUAAUAAGAGCAGAAGGGUGACUCAUGAU [Esticece] (puzzle: Same State 2) | – | – | – | 36.6 nM | 342 nM | 58.2 nM
CUGCAACAUGAGGAUCACCCAUGUAACCCAAUUAUAGGAUAUGUGAUGGUGAUCGACAUGACAGAAGGGUGAUUGG [Arinra] (puzzle: Same State 1) | – | – | – | 199 nM | 99.4 nM | 46.4 nM
AAUUAUUUACAUGAGGAUCACCCAUGUAUUAUUACAAGCUUUAUCCUCGUUUUAUUUAUUAUUAUUAUUAUUAUUAA [benbell_design1] (puzzle: Sensor for hsa-mir-208a version 2) | – | – | – | 369 nM | 33 nM | 326 nM

Source: the supplement of paper PMC9170038
